Test results reported in PMC4121237, “Engineering Neprilysin Activity and Specificity to Create a Novel Therapeutic for Alzheimer’s Disease” (PLoS ONE, 2014).

Tests used:
Format in all cases: biochemical
[1] = test system: Aβ1–40 or 1–42 and eight off-target peptides; assay: High-throughput fluorescence polarisation screen of NEP variants; details: high throughput screening, relative to wild-type
Method: To screen NEP variants for improved activity on and specificity towards Aβ a high-throughput assay was developed where cleavage activity on Aβ1–40 or 1–42 and eight off-target peptides (see Table S1) was determined by fluorescence polarisation. Peptide substrates were labelled with DY-505 or DY-647 at the N-terminus and biotin at the C-terminus. The biotin serves for increasing the molecular size of uncleaved peptides after addition of strepavidin, thereby increasing the assay window and measurable signals. Peptide cleavage assays were performed by incubating NEP variant samples in a microtitre plate containing assay solution composed of 60 nM peptide substrate in 50 mM HEPES (pH 7.4) containing 150 mM NaCl and 0.05% Pluronic F-68 (Sigma). […] The extent of peptide cleavage was determined by measuring the fluorescence polaristion of the stopped reactions on a plate reader (Tecan) with an appropriate set up of polarisation filters. […]
To rank these variants the change in activity on the Aβ1–40 peptide was divided by the average change in specificity on the other peptides and then by the specificity of the wild-type enzyme. […] At many other positions only a single amino acid substitution was detected as having improved specificity, and some of these provided the largest gains observed. […]

Bradykinin = assay: Steady-state kinetics of peptide cleavage, fluorescence polarisation; details: substrate Bradykinin; for Km / kcat: 37°C, pH 7.4; for Fold change in kcat/KM: ratio of wild-type NEP kcat/KM to that of the mutant
Method: (§1) For detailed kinetic characterisation of peptide cleavage by NEP, a similar assay to that above was used with modifications based on a published method. Peptides were synthesised by Bachem using 9-fluorenylmethyloxycarbonyl solid-phase peptide synthesis and were labelled with a N-terminal 5(6)FAM via a ε-aminocaproic acid linker and a C-terminal biotin via a lysine linker (Table S1). Purified peptides were supplied as trifluoroacetate salts with a purity ≥95%. The assay was performed in a 96-well microtitre plate and contained 50 mM HEPES (pH 7.4), 100 mM NaCl, 0.05% (w/v) BSA (Buffer A), 1–200 µM peptide substrate and 1–500 nM NEP protein. Reactions were incubated at 37°C before being stopped at various time points between 2 and 360 min by transferring 5 µL aliquots to 245 µL Buffer A containing 2 mM 1,10-phenanethroline (Sigma) and 2 µM avidin (Invitrogen). For peptide substrates containing disulphide bonds, 1 mM tris(2-carboxyethyl)phosphine (Thermo Scientific) was added to the stop solution. The fluorescence polarisation of the resulting solution was measured on a Victor plate reader and the amount of substrate cleaved was determined with reference to substrate-only controls with and without avidin. Initial rates were obtained by linear regression of the linear regions of time courses. Enzyme velocity was plotted as a function of substrate concentration and the Michaelis-Menten equation was used to fit the data, giving the parameters kcat and KM.

Neurotensin = assay: as above; details: substrate Neurotensin; for Km / kcat: 37°C, pH 7.4; for Fold change in kcat/KM: ratio of wild-type NEP kcat/KM to that of the mutant
Method: as §1

Aβ1–40 = assay: as above; details: for Km / kcat / Fold change in kcat/KM: substrate Aβ 1–40; for Km / kcat: 37°C, pH 7.4; for Fold change in kcat/KM: ratio of wild-type NEP kcat/KM to that of the mutant; for increase in kcat/KM (catalytic efficiency) on Aβ1–40 over wild-type NEP: substrate Aβ1–40, relative to wild-type NEP
Method: as §1

Angiotensin = assay: as above; details: substrate Angiotensin; for Km / kcat: 37°C, pH 7.4; for Fold change in kcat/KM: ratio of wild-type NEP kcat/KM to that of the mutant
Method: as §1

Glucagon = assay: as above; details: substrate Glucagon; for Km / kcat: 37°C, pH 7.4; for Fold change in kcat/KM: ratio of wild-type NEP kcat/KM to that of the mutant
Method: as §1

Row | Molecule | improvement in specificity ([1]; activity on Aβ1–40 relative to other peptides) | improvement in activity on Aβ [1] | Km (Bradykinin) | kcat (Bradykinin) | Fold change in kcat/KM (Bradykinin) | Km (Neurotensin) | kcat (Neurotensin) | Fold change in kcat/KM (Neurotensin) | Km (Aβ1–40) | kcat (Aβ1–40) | Fold change in kcat/KM (Aβ1–40) | increase in kcat/KM (catalytic efficiency) on Aβ1–40 over wild-type NEP (Aβ1–40) | Km (Angiotensin) | kcat (Angiotensin) | Fold change in kcat/KM (Angiotensin) | Km (Glucagon) | kcat (Glucagon) | Fold change in kcat/KM (Glucagon)
1 | NEP G714K: single mutant G714K of the human NEP ectodomain (protein, UniProt P08473 52-750, looked up, variant G714K, extracellular domain, single mutant G714K of the human NEP ectodomain) extracellular domain: YDDGICKSSDCIKSAARLIQNMDATTEPCTDFFKYACGGWLKRNVIPETSSRYGNFDILRDELEVVLKDVLQEPKTEDIVAVQKAKALYRSCINESAIDSRGGEPLLKLLPDIYGWPVATENWEQKYGASWTAEKAIAQLNSKYGKKVLINLFVGTDDKNSVNHVIHIDQPRLGLPSRDYYECTGIYKEACTAYVDFMISVARLIRQEERLPIDENQLALEMNKVMELEKEIANATAKPEDRNDPMLLYNKMTLAQIQNNFSLEINGKPFSWLNFTNEIMSTVNISITNEEDVVVYAPEYLTKLKPILTKYSARDLQNLMSWRFIMDLVSSLSRTYKESRNAFRKALYGTTSETATWRRCANYVNGNMENAVGRLYVEAAFAGESKHVVEDLIAQIREVFIQTLDDLTWMDAETKKRAEEKALAIKERIGYPDDIVSNDNKLNNEYLELNYKEDEYFENIIQNLKFSQSKQLKKLREKVDKDEWISGAAVVNAFYSSGRNQIVFPAGILQPPFFSAQQSNSLNYGGIGMVIGHEITHGFDDNGRNFNKDGDLVDWWTQQSASNFKEQSQCMVYQYGNFSWDLAGGQHLNGINTLGENIADNGGLGQAYRAYQNYIKKNGEEKLLPGLDLNHKQLFFLNFAQVWCGTYRPEYAVNSIKTDVHSPKNFRIIGTLQNSAEFSEAFHCRKNSYMNPEKKCRVW | approximately 12 fold | ~7 fold | 120 ± 8 µM | 7.4 ± 0.3 s⁻¹ | 7.5 | 10 ± 0.7 µM | 8.6 ± 0.2 s⁻¹ | 0.98 | 42 ± 0.7 µM | 1.9 ± 0.2 s⁻¹ | 0.18 | ~6 fold | 18 ± 1 µM | 12 ± 0.3 s⁻¹ | 1.5 | 42 ± 5 µM | 5.2 ± 0.3 s⁻¹ | 1.5
2 | NEP G399V: single mutant G399V of the human NEP ectodomain (protein, UniProt P08473 52-750, looked up, variant G399V, extracellular domain, single mutant G399V of the human NEP ectodomain) extracellular domain: YDDGICKSSDCIKSAARLIQNMDATTEPCTDFFKYACGGWLKRNVIPETSSRYGNFDILRDELEVVLKDVLQEPKTEDIVAVQKAKALYRSCINESAIDSRGGEPLLKLLPDIYGWPVATENWEQKYGASWTAEKAIAQLNSKYGKKVLINLFVGTDDKNSVNHVIHIDQPRLGLPSRDYYECTGIYKEACTAYVDFMISVARLIRQEERLPIDENQLALEMNKVMELEKEIANATAKPEDRNDPMLLYNKMTLAQIQNNFSLEINGKPFSWLNFTNEIMSTVNISITNEEDVVVYAPEYLTKLKPILTKYSARDLQNLMSWRFIMDLVSSLSRTYKESRNAFRKALYVTTSETATWRRCANYVNGNMENAVGRLYVEAAFAGESKHVVEDLIAQIREVFIQTLDDLTWMDAETKKRAEEKALAIKERIGYPDDIVSNDNKLNNEYLELNYKEDEYFENIIQNLKFSQSKQLKKLREKVDKDEWISGAAVVNAFYSSGRNQIVFPAGILQPPFFSAQQSNSLNYGGIGMVIGHEITHGFDDNGRNFNKDGDLVDWWTQQSASNFKEQSQCMVYQYGNFSWDLAGGQHLNGINTLGENIADNGGLGQAYRAYQNYIKKNGEEKLLPGLDLNHKQLFFLNFAQVWCGTYRPEYAVNSIKTDVHSPGNFRIIGTLQNSAEFSEAFHCRKNSYMNPEKKCRVW | – | – | 79 ± 10 µM | 0.15 ± 0.01 s⁻¹ | 250 | 12 ± 1 µM | 1.1 ± 0.04 s⁻¹ | 8.2 | 55 ± 7 µM | 2.7 ± 0.2 s⁻¹ | 0.16 | ~6 fold | 3.6 ± 0.4 µM | 0.73 ± 0.03 s⁻¹ | 4.6 | 20 ± 2 µM | 2.9 ± 0.1 s⁻¹ | 1.2
